# Reference: paper PMC5669925, “Tumor-expressed immune checkpoint B7x promotes cancer progression and antigen-specific CD8 T cell exhaustion and suppressive innate immune cells” (Oncotarget, 2017)
# T1: Recombinant human NRP1 (R&D) (human, UniProt O14786 22-856)
# T1 construct: Neuropilin-1 (NRP1), human; Soluble analyte in BLI; no catalogue number or tag is printed; also called Rh-NRP1; source: bought: R&D systems
# T1 sequence (looked up): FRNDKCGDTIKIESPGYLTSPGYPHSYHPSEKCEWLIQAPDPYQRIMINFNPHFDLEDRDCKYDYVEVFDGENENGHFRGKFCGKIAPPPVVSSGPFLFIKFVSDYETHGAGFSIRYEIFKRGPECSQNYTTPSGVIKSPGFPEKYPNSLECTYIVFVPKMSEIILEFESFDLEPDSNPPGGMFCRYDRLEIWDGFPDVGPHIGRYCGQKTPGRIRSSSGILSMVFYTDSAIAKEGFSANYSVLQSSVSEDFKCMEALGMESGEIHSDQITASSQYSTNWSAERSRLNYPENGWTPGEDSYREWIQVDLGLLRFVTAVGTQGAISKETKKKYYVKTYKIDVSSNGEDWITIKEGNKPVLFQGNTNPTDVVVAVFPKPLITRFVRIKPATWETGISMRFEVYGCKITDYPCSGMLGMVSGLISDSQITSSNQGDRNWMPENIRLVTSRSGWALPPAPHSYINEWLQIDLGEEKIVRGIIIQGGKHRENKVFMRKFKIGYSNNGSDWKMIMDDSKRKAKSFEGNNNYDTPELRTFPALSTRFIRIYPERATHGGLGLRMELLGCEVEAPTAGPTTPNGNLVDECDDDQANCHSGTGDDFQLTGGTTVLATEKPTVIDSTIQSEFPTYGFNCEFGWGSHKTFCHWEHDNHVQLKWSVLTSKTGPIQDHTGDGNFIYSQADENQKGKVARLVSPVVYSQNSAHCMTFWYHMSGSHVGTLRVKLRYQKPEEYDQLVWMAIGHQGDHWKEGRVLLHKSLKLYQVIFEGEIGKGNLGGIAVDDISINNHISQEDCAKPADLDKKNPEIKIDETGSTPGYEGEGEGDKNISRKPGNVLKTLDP
# What was measured:
# [1] = target: PD-1 on labeled cells (intercellular conjugate assay) (UniProt Q15116); assay: intercellular conjugate assay; two cell populations labeled with CFSE or Violet Cell Trace, 2 x 10^5 of each mixed in FACS buffer, 45 minutes at 37 degrees Celsius; co-localization read by FACS
# Sequence of PD-1 on labeled cells (intercellular conjugate assay) (Q15116 25-288): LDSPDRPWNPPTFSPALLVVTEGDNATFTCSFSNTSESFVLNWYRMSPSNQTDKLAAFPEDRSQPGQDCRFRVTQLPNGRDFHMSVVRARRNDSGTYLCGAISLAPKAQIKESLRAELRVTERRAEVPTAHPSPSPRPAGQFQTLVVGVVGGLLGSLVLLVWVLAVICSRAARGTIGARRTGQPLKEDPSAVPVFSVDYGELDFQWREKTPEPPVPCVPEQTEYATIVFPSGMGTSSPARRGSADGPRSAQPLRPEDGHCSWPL
# [2] = target: T1, Recombinant human NRP1 (R&D); assay: BLI; BLItz system (ForteBio); human IgG fusion protein (25 ug/mL, 2 min) captured on anti-human IgG Fc capture sensors; protein analytes in 1x Kinetic Buffer (ForteBio); settings: both partners purified
# Sequence of PD-L1 on labeled cells (intercellular conjugate assay) (Q9NZQ7 19-290): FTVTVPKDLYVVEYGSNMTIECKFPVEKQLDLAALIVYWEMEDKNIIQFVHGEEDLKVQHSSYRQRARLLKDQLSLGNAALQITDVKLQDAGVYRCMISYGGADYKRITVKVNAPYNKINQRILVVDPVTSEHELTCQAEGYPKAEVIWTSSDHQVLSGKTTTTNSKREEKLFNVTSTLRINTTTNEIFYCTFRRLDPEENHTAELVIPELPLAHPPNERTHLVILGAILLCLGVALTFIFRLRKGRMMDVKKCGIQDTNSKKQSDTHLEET
Molecule,percent co-localization [1] [%],binding result [2]
PD-L1 on labeled cells (intercellular conjugate assay) (from UniProt Q9NZQ7 19-290) (ligand),18,
PD-L2 on labeled cells (intercellular conjugate assay) (from UniProt Q9BQ51 20-273) (ligand),24,
"Human Sema3a-hIgG1 (R&D) (Fc fusion, UniProt Q14563 21-771, looked up, Semaphorin 3a (Sema3a), human; Commercial Fc fusion; no catalogue number; also called Sema3a-Ig; Semaphorin3a-hIgG1; source: bought: R&D systems) NYQNGKNNVPRLKLSYKEMLESNNVITFNGLANSSSYHTFLLDEERSRLYVGAKDHIFSFDLVNIKDFQKIVWPVSYTRRDECKWAGKDILKECANFIKVLKAYNQTHLYACGTGAFHPICTYIEIGHHPEDNIFKLENSHFENGRGKSPYDPKLLTASLLIDGELYSGTAADFMGRDFAIFRTLGHHHPIRTEQHDSRWLNDPKFISAHLISESDNPEDDKVYFFFRENAIDGEHSGKATHARIGQICKNDFGGHRSLVNKWTTFLKARLICSVPGPNGIDTHFDELQDVFLMNFKDPKNPVVYGVFTTSSNIFKGSAVCMYSMSDVRRVFLGPYAHRDGPNYQWVPYQGRVPYPRPGTCPSKTFGGFDSTKDLPDDVITFARSHPAMYNPVFPMNNRPIVIKTDVNYQFTQIVVDRVDAEDGQYDVMFIGTDVGTVLKVVSIPKETWYDLEEVLLEEMTVFREPTAISAMELSTKQQQLYIGSTAGVAQLPLHRCDIYGKACAECCLARDPYCAWDGSACSRYFPTAKRRTRRQDIRNGDPLTHCSDLHHDNHHGHSPEERIIYGVENSSTFLECSPKSQRALVYWQFQRRNEERKEEIRVDDHIIRTDQGLLLRSLQQKDSGNYLCHAVEHGFIQTLLKVTLEVIDTEHLEELLHKDDDGDGSKTKEMSNSMTPSQKVWYRDFMQLINHPNLNTMDEFCEQVWKRDRKQRRQRPGHTPGNSNKWKHLQENKKGRNRRTHEFERAPRSV",,binds
